This note sets out measurements from US20180099046A1 (JIANGSU HENGRUI MEDICINE, published 2018).

Assay [1] concerns the target T1, human sclerostin with a Flag tag (h-SOST-Flag) (human, UniProt Q9BQB4 24-213, biotinylated (biotin labeling kit) in the ELISA).
T1 construct: also called SOST-FLAG protein; not shown: C-terminal Flag tag
T1 sequence (looked up): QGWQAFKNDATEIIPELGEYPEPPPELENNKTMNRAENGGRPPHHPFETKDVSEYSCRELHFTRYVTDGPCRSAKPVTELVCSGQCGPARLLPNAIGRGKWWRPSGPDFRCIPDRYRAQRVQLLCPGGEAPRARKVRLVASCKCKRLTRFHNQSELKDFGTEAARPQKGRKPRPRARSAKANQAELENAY
Nature of the assay: binding ELISA, biotinylated h-SOST-Flag on streptavidin plate. As for the experimental part:
(§1) ELISA experiments were used to detect the binding properties of sclerostin antibodies. Sclerostin with a Flag tag (h-SOST-FLAG, encoded by SEQID NO: 2) was biotinylated with a biotin labeling kit (Dojido Chem, LK03), and immobilized onto a 96-well EIA/RIA plate via binding to streptavidin coated on it. After the antibody was added, the strength of the signal was used to determine the binding activity between the antibody and human sclerostin.
Streptavidin (Sigma, S4762-5MG) was diluted to a concentration of 5 μg/ml with PBS buffer at pH 7.4 (Sigma, P4417-100TAB), and added to a 96-well EIA/RIA plate (Corning,CLS3590-100EA) at a volume of 50 μl/well. Then, the plate was incubated in an incubator at 37° C. for 2 hours. The liquid was discarded, the plates were blocked with 200 μl/well of blocking solution containing 5% skim milk (Guangming skim milk) in PBS, and incubated in an incubator at 37° C. for 2.5 hours or overnight (16-18 hours) at 4° C. After blocking, the blocking solution was discarded and the plate was washed 5 times with PBST buffer (pH 7.4 PBS containing 0.05% tween-20). Biotinylated SOST-FLAG protein (R&D SYSTEM, 1505-LR-025) was diluted with sample dilution buffer (pH 7.4 PBS containing 1% BSA) to 0.5 μg/ml and was added to each well at 50 μl/well, then the plate was incubated in the incubator at 37° C. for 2 hours. After incubation, the reaction solution in the plate was discarded, and the plate was washed with PBST 6 times, and then 50 μl/well of gradient dilution antibody with sample dilution buffer was added, and the plate was incubated in a incubator at 37° C. for 2 hours. The plate was washed 6 times with PBST after incubation, added with 100 μl/well of HRP-labeled goat anti-mouse (Jackson Immuno Research, Cat No. 115-035-003) or HRP-labeled goat anti-human secondary antibody (Jackson Immuno Research, Cat No. 109-035-003) diluted in sample dilution, and incubated at 37° C. for 1 hour. After washing the plates with PBST 6 times, 50 μl/well of TMB substrate (KPL, Cat No. 52-00-03) was added to each well, and incubated at room temperature for 10-15 min, and the reaction was stopped by adding 50 μl 1M H₂SO₄ to each well. The OD value at a wavelength of 450 nm was read on a NOVOStar microplate reader, and then EC₅₀ values of the binding between the sclerostin antibody of the present invention and human sclerostin were calculated.

Assay [2] addresses T2, human sclerostin protein (R&D SYSTEM, 1406-ST/CF) (human, UniProt Q9BQB4 24-213, biotinylated in the LRP-6 blocking assay; not labelled in Biacore).
T2 construct: Bought protein; also called human SOST; SOST (R&D, Catalog #1406-ST-025)
T2 sequence (looked up): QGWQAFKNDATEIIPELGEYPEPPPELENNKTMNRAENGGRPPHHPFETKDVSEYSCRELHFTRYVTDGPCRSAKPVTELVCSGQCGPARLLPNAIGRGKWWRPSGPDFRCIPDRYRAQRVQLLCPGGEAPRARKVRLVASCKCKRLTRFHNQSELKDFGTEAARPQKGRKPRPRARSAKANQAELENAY
Nature of the assay: SPR (Biacore). Background: SPR reads the build-up and loss of mass on a sensor chip optically.

Assay [3] addresses T3, cynomolgus monkey sclerostin with a Flag tag (cyno-SOST-Flag) (cynomolgus monkey).
T3 construct: also called monkey SOST
Nature of the assay: SPR (Biacore).

Assay [4] addresses T2, human sclerostin protein (R&D SYSTEM, …). Nature of the assay: cell-based or functional assay.
Assay [5] has the same target. The assay is described as follows: competition ELISA: antibody blocks binding of biotinylated human sclerostin to captured LRP-6-Fc. As for the experimental part: (§2) In the method, goat anti-human Fc antibody was coated onto a 96-well EIA/RIA plate, and then LRP-6-Fc fusion protein was added for incubation. The biotinylated sclerostin protein and the anti-sclerostin antibody were co-incubated, and then added to the plate for incubation. After washing the plate, the binding amount between biotinylated sclerostin and LRP-6 was measured, and the IC₅₀ value of the blocking activity of the sclerostin antibody was calculated.
(§3) The goat anti-human Fc antibody was diluted to a concentration of 1 μg/ml with PBS buffer at pH 7.4 (Sigma, P4417-100TAB), and added to a 96-well EIA/RIA plate at a volume of 100 μl/well. Then, the plate was incubated at 37° C. for 2 hours. After discarding the liquid, the plates were blocked with 200 μl/well of blocking solution containing 5% skim milk (Guangming skim milk) in PBS, and incubated at 37° C. for 2.5 hours. After blocking, the blocking solution was discarded and the plate was washed 5 times with PBST buffer (pH 7.4 PBS containing 0.05% tween-20). LPR-6-Fc fusion protein (R&D SYSTEM, 1505-LRP-025) was diluted with sample dilution buffer (pH 7.4 PBS containing 1% BSA) to 1 μg/ml and 50 μl/well was added, then the plate was incubated at 37° C. for 2 hours. […]

The target of assay [6] is T3, cynomolgus monkey sclerostin with a …. The assay is described as follows: competition ELISA: antibody blocks binding of monkey sclerostin to captured LRP-6-Fc. As for the experimental part:
as §2, §3
A general note: In an ELISA, binding on a coated surface is turned into a signal by an enzyme label.

Assay [7] addresses T2, human sclerostin protein (R&D SYSTEM, …). Nature of the assay: SPR (Biacore X100), antibody captured by anti-human antibody, SOST as analyte, 1:1 Langmuir fit. An excerpt:
(§4) The anti-human capture antibody was covalently linked to the CMS biosensor chip (Cat. #BR-1000-12, GE) of a Biacore instrument (Biacore X100, GE) according to the method described in the instructions of anti-human trapping kit (GE, Cat.# BR-1008-39) for affinity capturing an amount of a test antibody. Then, a gradient of concentrations of SOST antigen (human SOST, R&D SYSTEM, Cat.#1406-ST-025/CF, R&D; monkey SOST, cyno-SOST-Flag, obtained by purification, encoded by SEQ ID NO: 4 of Example 1; murine SOST, m-SOST-Flag, obtained by purification, encoded by SEQ ID NO: 3 of Example 1) were flowed through the surface of the biochip. The reaction signal was detected in real-time using a Biacore instrument (GE, BiacoreX100) to obtain the association and dissociation curves. After each cycle of dissociation was finished in the experiment, the biochip was washed and regenerated with regeneration solution in the anti-human capture kit.
(§5) The amino-coupled kit used in the experiments was purchased from GE (Cat. #BR-1000-50, GE), and the buffer was HBS-EP+10× buffer solution (Cat. #BR-1006-69, GE), and the buffer was diluted to 1× (pH 7.4) with D.I. Water.
(§6) The data obtained was fitted by GE BlAevaluation version 4.1 software using a 1:1 Langmuir model, and the affinity value was generated.

Assay [8] concerns the target T3, cynomolgus monkey sclerostin with a …. The description is as above.
Text: as §4, §5, §6

The target of assay [9] is T2, human sclerostin protein (R&D SYSTEM, …). Nature of the assay: competition ELISA: antibody blocks binding of biotinylated human sclerostin to captured LRP-6-Fc (Test Example 2). As for the experimental part:
as §2, §3

Assay [10] addresses T1, human sclerostin with a Flag tag …. The assay is described as follows: binding ELISA, biotinylated h-SOST-Flag on streptavidin plate (Test Example 1). How it is done:
as §1
Streptavidin (Sigma, S4762-5MG) was diluted to a concentration of 5 μg/ml with PBS buffer at pH 7.4 (Sigma, P4417-100TAB), and added to a 96-well EIA/RIA plate (Corning,CLS3590-100EA) at a volume of 50 μl/well. Then, the plate was incubated in an incubator at 37° C. for 2 hours. The liquid was discarded, the plates were blocked with 200 μl/well of blocking solution containing 5% skim milk (Guangming skim milk) in PBS, and incubated in an incubator at 37° C. for 2.5 hours or overnight (16-18 hours) at 4° C. After blocking, the blocking solution was discarded and the plate was washed 5 times with PBST buffer (pH 7.4 PBS containing 0.05% tween-20). […] The OD value at a wavelength of 450 nm was read on a NOVOStar microplate reader, and then EC₅₀ values of the binding between the sclerostin antibody of the present invention and human sclerostin were calculated.

B1: humanized antibody Ab-5 (antibody, human IgG4 S228P, kappa, V domains shown)
VH: EVQLVQSGAEVKKPGASVKVSCKASGYTFTDYNLDWLRQAPGEGLEWIGDIDPNDGDILYNQKFRDRVTMTTDTSTSTAYMELRSLRSDDTAVYYCARRWAYYFDYWGQGTTVTVSS
VL: DIVMTQSPSSLSASVGDRVTITCKASQSVSNDVAWYQQKPGKSPKLLIYYTSNRFTGVPDRFSGSGSGTDFTLTISSLQPEDFATYFCQQDYSSPVTFGGGTKVEIKR
notes: also called humanized anti-SOST antibody
As for B1, the EC50 – broadly, the concentration at which the effect is half-maximal – in assay [1] came out at 0.63 nM. The “fold affinity against the positive molecule (Romosozumab)” value in assay [2] is roughly 10 times; in [3], greater than 10 times. The “Cell activity EC50 (nM): alkaline phosphatase (ALP) activity in C2C12 cells given wnt3a and SOST” value in [4] was found to be 84.7 nM. Further, the IC50 (usually the concentration that inhibits the measured activity by half) was 23.5 nM in assay [5] and 110 nM in assay [6]. Moreover, the values for the dissociation constant (Kd) in assay [7] and in [8] were 0.064 nM and 0.03 nM, respectively.

B2: humanized antibody Ab-10 (antibody, human IgG1, kappa, V domains shown)
VH: EVQLVQSGAEVKKPGASVKVSCKASGYTFTDYNLDWVRQAPGQGLEWMGDIDPNNGDILYNQKFRDRVTMTTDTSTSTAYMELRSLRSDDTAVYYCARRWAYYFDYWGQGTTVTVSS
VL: DIQMTQSPSSLSASVGDRVTITCKASQSVSNDVAWYQQKPGKAPKLLIYYTSNRFTGVPSRFSGSGSGTDFTLTISSLQPEDFATYYCQQDYSSPVTFGGGTKVEIKR
B2 came in with an EC50 in [1] of 0.54 nM.

B3: humanized antibody Ab-9 (antibody, human IgG4 S228P, kappa, V domains shown)
VH: EVQLVQSGAEVKKPGASVKVSCKASGYTFTDYNLDWLRQAPGEGLEWIGDIDPNNGDILYNQKFRDRVTMTTDTSTSTAYMELRSLRSDDTAVYYCARRWAYYFDYWGQGTTVTVSS
VL: NIVMTQSPSSLSASVGDRVTITCKASQSVSNDVAWYQQKPGKSPKLLIYYTSNRFTGVPDRFSGSGSGTDFTLTISSLQPEDFATYFCQQDYSSPVTFGGGTKVEIKR
With B3, a half-maximal response in [1] (EC50) required 0.4 nM.

B4: murine anti-human sclerostin monoclonal antibody Ab-1 (antibody, V domains shown)
VH: EVQLQQSGPELVKPGTSVKIPCQTSGYTFTDYNLDWLKQRPGESLEWIGDIDPNNGDILYNQKFRDKATLTVDTSSNTAYLELRSLTSEDTAVYYCARRWAYYFDYWGQGTTLTISS
VL: NIVMTQTPKLLFVSAGDRITITCKASQSVSNDVAWYQQKPGQSPKLLIYYTSNRFTGVPDRFTGSGYGTDFTLTINTVQAEDLAVYFCQQDYSSPVTFGAGTKLELK
notes: Mouse hybridoma antibody; also called parental antibody; murine antibody
For the molecule B4, the EC50 in assay [1] and in assay [10] was 0.701 nM throughout. In assay [9], this molecule came in with an IC50 of 9.91 nM.

B5: Romosozumab (antibody, V domains shown)
VH: EVQLVQSGAEVKKPGASVKVSCKASGYTFTDYNMHWVRQAPGQGLEWMGEINPNSGGAGYNQKFKGRVTMTTDTSTSTAYMELRSLRSDDTAVYYCARLGYDDIYDDWYFDVWGQGTTVTVSS
VL: DIQMTQSPSSLSASVGDRVTITCRASQDISNYLNWYQQKPGKAPKLLIYYTSRLLSGVPSRFSGSGSGTDFTLTISSLQPEDFATYYCQQGDTLPYTFGGGTKVEIK
B5: the “Cell activity EC50 (nM): alkaline phosphatase (ALP) activity in C2C12 cells given wnt3a and SOST” value in assay [4] is 71.6 nM. Besides, the IC50 turned out to be 27.9 nM in assay [5] and 46.8 nM in assay [6]. For the same molecule, the Kd – broadly, a measure of binding affinity in units of concentration – is 0.67 nM in assay [7] and 0.52 nM in assay [8].
